Test results: patent US11535650 (RA PHARMACEUTICALS, dated 2022)
Positions of bridges follow the written chain, without caps; N, C: chain ends. Non-standard residues stand in square brackets, D forms with d. Primed or numbered codes have the meaning given here. mXylyl = bridging moiety between residues (mXylyl(i,j)); Trp(7-aza) = N[C@@H](Cc1c[nH]c2ncccc12)C(=O)O; mXylyl(4) = bridging moiety between residues; Trp(1-Me) = Cn1cc(C[C@H](N)C(=O)O)c2ccccc21; pXylyl = bridging moiety between residues; Phg = N[C@H](C(=O)O)c1ccccc1; Tle = CC(C)(C)[C@H](N)C(=O)O; NMeS = CN[C@@H](CO)C(=O)O; hCys = N[C@@H](CCS)C(=O)O; Nva = CCC[C@H](N)C(=O)O; Sar = CNCC(=O)O

B1: R3000 (peptide)
peptide: Ac-[Nva]CYKNYH[Trp(7-aza)]EYP[Tle]Y-NH2
SMILES: CCC[C@H](NC(C)=O)C(=O)N[C@@H](CS)C(=O)N[C@@H](Cc1ccc(O)cc1)C(=O)N[C@@H](CCCCN)C(=O)N[C@@H](CC(N)=O)C(=O)N[C@@H](Cc1ccc(O)cc1)C(=O)N[C@@H](Cc1c[nH]cn1)C(=O)N[C@@H](Cc1c[nH]c2ncccc12)C(=O)N[C@@H](CCC(=O)O)C(=O)N[C@@H](Cc1ccc(O)cc1)C(=O)N1CCC[C@H]1C(=O)N[C@H](C(=O)N[C@@H](Cc1ccc(O)cc1)C(N)=O)C(C)(C)C
B2: R3009 (peptide)
peptide: Ac-[Nva]CYE[Sar][Tle]Y[Trp(7-aza)]EC[Nva]P[Nva]-NH2
modifications: linker 2-10 via mXylyl
B3: R3101 (peptide)
peptide: Ac-[Nva]C[Phg]T[Trp(7-aza)]EY[NMeS]HGC[Nva]-NH2
modifications: linker 2-11 via mXylyl(4) (inferred)
B4: R3102 (peptide)
peptide: Ac-[Nva]C[Phg]T[Trp(7-aza)]EYPHC[Nva]-NH2
modifications: linker 2-10 via mXylyl(4)
B5: R3103 (peptide)
peptide: Ac-[Nva][hCys][Phg]T[Trp(7-aza)]EY[NMeS]HC[Nva]-NH2
modifications: linker 2-10 via mXylyl(4)
B6: R3104 (peptide)
peptide: Ac-[Nva][hCys][Phg]T[Trp(7-aza)]EY[NMeS]HC[Nva]-NH2
modifications: linker 2-10 via pXylyl
B7: R3105 (peptide)
peptide: Ac-[Nva]C[Phg]T[Trp(7-aza)]EY[NMeS]H[hCys][Nva]-NH2
modifications: linker 2-10 via mXylyl(4)
B8: R3106 (peptide)
peptide: Ac-[Nva]C[Phg]T[Trp(7-aza)]EY[NMeS]H[hCys][Nva]-NH2
modifications: linker 2-10 via pXylyl
B9: R3107 (peptide)
peptide: Ac-[Nva][hCys][Phg]T[Trp(7-aza)]EY[NMeS]H[hCys][Nva]-NH2
modifications: linker 2-10 via mXylyl(4)
B10: R3108 (peptide)
peptide: Ac-[Nva][hCys][Phg]T[Trp(7-aza)]EY[NMeS]H[hCys][Nva]-NH2
modifications: linker 2-10 via pXylyl
B11: R3109 (peptide)
peptide: Ac-[Nva]C[Phg]T[Trp(1-Me)]EY[NMeS]AC[Nva]-NH2
modifications: linker 2-10 via mXylyl(4)
B12: R3110 (peptide)
peptide: Ac-YEN[Tle]Y[Trp(1-Me)]EYP[Phg][Nva]-NH2
SMILES: CCC[C@H](NC(=O)[C@@H](NC(=O)[C@@H]1CCCN1C(=O)[C@H](Cc1ccc(O)cc1)NC(=O)[C@H](CCC(=O)O)NC(=O)[C@H](Cc1cn(C)c2ccccc12)NC(=O)[C@H](Cc1ccc(O)cc1)NC(=O)[C@@H](NC(=O)[C@H](CC(N)=O)NC(=O)[C@H](CCC(=O)O)NC(=O)[C@H](Cc1ccc(O)cc1)NC(C)=O)C(C)(C)C)c1ccccc1)C(N)=O
B13: R3010 (peptide)
peptide: Ac-[Nva]CYE[Sar][Tle]Y[Trp(7-aza)]E[Nva][Nva]PC-NH2
modifications: linker 2-13 via mXylyl

Target: human C5 protein (human, UniProt P01031 19-673; P01031 678-1676)
Test: cell-based or functional assay

Row | Binder | Avg. IC50, human hemolysis assay (complete human sera) [µM]
1 | B1 | > 10
2 | B2 | > 100
3 | B3 | > 100
4 | B4 | 0.978
5 | B5 | > 25
6 | B6 | > 2
7 | B7 | > 5
8 | B8 | > 5
9 | B9 | > 75
10 | B10 | > 75
11 | B11 | > 100
12 | B12 | 2.94
13 | B13 | > 100
